The values below come from PMC5622040 (Nature Communications, 2017).

This data set concerns the molecule itself. The data set can be described thus: solid-state NMR of amyloid fibrils.

B1: Syrian hamster PrP23-144 (domain or fragment)
chain: KKRPKPGGWNTGGSRYPGQGSPGGNRYPPQGGGTWGQPHGGGWGQPHGGGWGQPHGGGWGQPHGGGWGQGGGTHNQWNKPSKPKTNMKHMAGAAAAGAVVGGLGGYMLGSAMSRPMMHFGND
Take B1: the binding result was “binds”.
